According to PMC3477590 (Molecular cell, 2012):

Molecular target: minimally biotinylated GLMN (wild-type) (human, UniProt Q92990 1-594, minimally biotinylated)
Assay: SPR

Chain of minimally biotinylated GLMN (wild-type) (Q92990 whole entry): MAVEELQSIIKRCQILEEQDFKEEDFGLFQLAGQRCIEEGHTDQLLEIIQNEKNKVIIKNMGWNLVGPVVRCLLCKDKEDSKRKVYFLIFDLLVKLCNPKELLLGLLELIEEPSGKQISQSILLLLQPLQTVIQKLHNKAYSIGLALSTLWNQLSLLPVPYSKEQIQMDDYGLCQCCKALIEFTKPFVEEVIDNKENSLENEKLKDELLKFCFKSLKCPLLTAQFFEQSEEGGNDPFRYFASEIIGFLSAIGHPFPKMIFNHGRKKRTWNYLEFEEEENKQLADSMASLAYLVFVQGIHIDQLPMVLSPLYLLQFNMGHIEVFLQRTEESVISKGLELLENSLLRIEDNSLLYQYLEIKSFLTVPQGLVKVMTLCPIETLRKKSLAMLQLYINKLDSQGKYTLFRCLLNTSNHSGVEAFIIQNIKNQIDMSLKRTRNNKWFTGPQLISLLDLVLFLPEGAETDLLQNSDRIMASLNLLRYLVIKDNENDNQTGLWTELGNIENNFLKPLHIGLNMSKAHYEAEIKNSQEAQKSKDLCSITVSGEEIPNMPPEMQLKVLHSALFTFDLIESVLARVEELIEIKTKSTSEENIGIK

B1: isolated RBX1 RING domain (domain or fragment)
chain: not shown
  Kd: 38.6 nM
